# Laboratory results taken from patent US20250043302A1, “MUTATED HYDROXYPHENYLPYRUVATE DIOXYGENASE POLYPEPTIDE, AND CODING GENE AND USE THEREOF” (BEIJING DABEINONG BIOTECHNOLOGY CO., LTD., priority 2021, published 2025).
# Tests used:
# Type in all cases: in vivo
# [1] = system: Arabidopsis thaliana T1 plants; experiment: Topramezone tolerance of transgenic Arabidopsis thaliana T1 plants (spray, bleached leaf area grade, damage score); settings: Table 13; for Classification and statistics of the grade of pesticide damage Grade 0: number of plants at grade 0; for Classification and statistics of the grade of pesticide damage Grade 1: number of plants at grade 1; for Classification and statistics of the grade of pesticide damage Grade 2: number of plants at grade 2; for Classification and statistics of the grade of pesticide damage Grade 3: number of plants at grade 3; for Scores: pesticide damage score
# Summary of the method: (§1)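 Damage graded 0–3 from the proportion of bleached leaf area 7 days after spraying. Plants were glufosinate-selected T1 lines, 18 days after sowing, plus vector and wild-type controls. Rates: mesotrione 52.5–420, isoxaflutole 35–280, topramezone 25–200 g ai/ha, with water (0×).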
# [2] = system: Arabidopsis thaliana T1 plants; experiment: Isoxaflutole tolerance of transgenic Arabidopsis thaliana T1 plants (spray, bleached leaf area grade, damage score); settings: for Classification and statistics of the grade of pesticide damage Grade 0 / Classification and statistics of the grade of pesticide damage Grade 1 / Classification and statistics of the grade of pesticide damage Grade 2 / Classification and statistics of the grade of pesticide damage Grade 3: number of plants in grade;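 on Scores: Weighted damage index from 0 to 100 where higher means more damage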
# Summary of the method: as §1
# [3] = system: Arabidopsis thaliana T1 plants; experiment: Mesotrione tolerance of transgenic Arabidopsis thaliana T1 plants (spray, bleached leaf area grade, damage score); design: Scores: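 damage score 0-100 computed as Σ(N×S)/(T×M)×100 over grades 0-3 with higher meaning more damage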; settings: for Classification and statistics of the grade of pesticide damage Grade 0 / Classification and statistics of the grade of pesticide damage Grade 1 / Classification and statistics of the grade of pesticide damage Grade 2 / Classification and statistics of the grade of pesticide damage Grade 3: number of plants in grade
# Summary of the method: as §1
molecule,measurement,setting,value
"AtHPPDm-F372A-F415W-02: nucleotide sequence encoding Arabidopsis thaliana HPPD with F372A+F415W; vector DBN11794 (nucleic acid, AtHPPDm-F372A-F415W-02 Nucleotide Sequence, vector DBN11794) DNA: ATGGGACATCAGAATGCTGCTGTATCAGAAAATCAAAATCATGATGATGGAGCCGCCTCCTCACCAGGGTTTAAGTTGGTTGGGTTCTCCAAGTTTGTACGGAAGAACCCAAAATCCGACAAGTTCAAGGTTAAACGCTTCCACCACATTGAATTCTGGTGCGGCGACGCCACCAATGTTGCTCGGCGTTTTTCATGGGGTTTAGGCATGAGATTCTCAGCAAAGAGTGACCTGAGCACCGGCAACATGGTTCATGCTAGCTATCTCTTAACATCTGGAGATTTGAGGTTTCTTTTCACGGCGCCGTACTCACCATCACTCTCCGCCGGCGAGATCAAACCCACCACGACTGCAAGCATACCTTCATTTGATCATGGTAGTTGCAGATCCTTCTTCTCGTCGCACGGCCTAGGGGTGCGCGCGGTCGCCATCGAAGTTGAAGATGCAGAATCAGCGTTTAGTATCAGCGTGGCAAATGGAGCTATTCCTTCCTCCCCTCCAATTGTCCTCAATGAGGCTGTAACTATTGCCGAGGTGAAGTTGTATGGAGATGTTGTGCTGAGATATGTTTCTTACAAGGCAGAGGACACTGAGAAATCTGAATTTTTGCCTGGTTTTGAAAGGGTCGAGGATGCTTCAAGTTTTCCTCTTGATTACGGCATACGACGGTTGGATCACGCGGTTGGAAATGTACCAGAACTTGGGCCGGCGCTCACTTATGTGGCTGGTTTCACTGGATTCCATCAATTTGCTGAGTTCACAGCTGATGATGTTGGGACTGCTGAAAGTGGGTTGAACTCTGCAGTCCTCGCCTCTAATGATGAAATGGTGCTCCTCCCGATCAACGAGCCTGTGCATGGCACCAAAAGGAAATCACAAATACAGACATATCTTGAGCACAATGAAGGTGCAGGGCTTCAACATCTTGCACTGATGTCTGAAGACATTTTCCGTACGCTGAGAGAGATGAGGAAGAGAAGTAGTATTGGTGGATTTGACTTCATGCCTTCTCCCCCACCAACTTACTACCAGAACTTGAAGAAGAGGGTTGGTGATGTGCTATCTGATGACCAGATCAAGGAGTGTGAAGAATTGGGCATTCTTGTTGATCGGGACGACCAAGGAACATTACTGCAGATAGCCACAAAACCACTTGGTGACCGCCCCACTATTTTTATTGAGATCATACAAAGAGTCGGCTGCATGATGAAGGATGAGGAAGGAAAAGCATATCAATCTGGTGGTTGTGGCGGCTTTGGGAAAGGAAACTGGTCTGAGCTGTTCAAATCCATCGAGGAGTATGAGAAGACCTTGGAGGCCAAGCAGCTCGTGGGTTGA",Resistance evaluation,[1]; topramezone 25 g ai/ha (1×),Poorly
same,Classification and statistics of the grade of pesticide damage Grade 0,[1]; topramezone 25 g ai/ha (1×),4
same,Classification and statistics of the grade of pesticide damage Grade 1,[1]; topramezone 25 g ai/ha (1×),4
same,Classification and statistics of the grade of pesticide damage Grade 2,[1]; topramezone 25 g ai/ha (1×),7
same,Classification and statistics of the grade of pesticide damage Grade 3,[1]; topramezone 25 g ai/ha (1×),1
same,Scores,[1]; topramezone 25 g ai/ha (1×),44
same,Resistance evaluation,[1]; topramezone 100 g ai/ha (4×),Non-resistant
same,Classification and statistics of the grade of pesticide damage Grade 0,[1]; topramezone 100 g ai/ha (4×),0
same,Classification and statistics of the grade of pesticide damage Grade 1,[1]; topramezone 100 g ai/ha (4×),0
same,Classification and statistics of the grade of pesticide damage Grade 2,[1]; topramezone 100 g ai/ha (4×),3
same,Classification and statistics of the grade of pesticide damage Grade 3,[1]; topramezone 100 g ai/ha (4×),13
same,Scores,[1]; topramezone 100 g ai/ha (4×),94
same,Resistance evaluation,[2]; isoxaflutole 35 g ai/ha,Poorly
same,Scores,[2]; isoxaflutole 35 g ai/ha,54
same,Classification and statistics of the grade of pesticide damage Grade 0,[2]; isoxaflutole 35 g ai/ha,0
same,Classification and statistics of the grade of pesticide damage Grade 1,[2]; isoxaflutole 35 g ai/ha,9
same,Classification and statistics of the grade of pesticide damage Grade 2,[2]; isoxaflutole 35 g ai/ha,4
same,Classification and statistics of the grade of pesticide damage Grade 3,[2]; isoxaflutole 35 g ai/ha,3
same,Resistance evaluation,[2]; isoxaflutole 70 g ai/ha,Non-resistant
same,Scores,[2]; isoxaflutole 70 g ai/ha,100
same,Classification and statistics of the grade of pesticide damage Grade 0,[2]; isoxaflutole 70 g ai/ha,0
same,Classification and statistics of the grade of pesticide damage Grade 1,[2]; isoxaflutole 70 g ai/ha,0
same,Classification and statistics of the grade of pesticide damage Grade 2,[2]; isoxaflutole 70 g ai/ha,0
same,Classification and statistics of the grade of pesticide damage Grade 3,[2]; isoxaflutole 70 g ai/ha,16
same,Resistance evaluation,[3]; mesotrione 52.5 g ai/ha,Poorly resistant
same,Scores,[3]; mesotrione 52.5 g ai/ha,65
same,Classification and statistics of the grade of pesticide damage Grade 0,[3]; mesotrione 52.5 g ai/ha,0
same,Classification and statistics of the grade of pesticide damage Grade 1,[3]; mesotrione 52.5 g ai/ha,4
same,Classification and statistics of the grade of pesticide damage Grade 2,[3]; mesotrione 52.5 g ai/ha,9
same,Classification and statistics of the grade of pesticide damage Grade 3,[3]; mesotrione 52.5 g ai/ha,3
same,Resistance evaluation,[3]; mesotrione 105 g ai/ha,Non-resistant
same,Scores,[3]; mesotrione 105 g ai/ha,100
same,Classification and statistics of the grade of pesticide damage Grade 0,[3]; mesotrione 105 g ai/ha,0
same,Classification and statistics of the grade of pesticide damage Grade 1,[3]; mesotrione 105 g ai/ha,0
same,Classification and statistics of the grade of pesticide damage Grade 2,[3]; mesotrione 105 g ai/ha,0
same,Classification and statistics of the grade of pesticide damage Grade 3,[3]; mesotrione 105 g ai/ha,16
